Test results: article PMC9769727, “Glucose-6-Phosphate Dehydrogenase, ZwfA, a Dual Cofactor-Specific Isozyme Is Predominantly Involved in the Glucose Metabolism of Pseudomonas bharatica CSV86^T” (Microbiology Spectrum, 2022)

Tests used:
[1] = molecular target: Glucose-6-phosphate dehydrogenase ZwfC from Pseudomonas bharatica CSV86T (Pseudomonas bharatica CSV86T); test: SEC; Superdex 200 Increase 10/300 GL column (CV 24 mL, GE Healthcare) in Buffer A (Tris-Cl 50 mM, pH 7.5), 4°C; native molecular weight from a semilog plot of Ve/V0 against standard proteins, compared with the subunit weight by SDS-PAGE
[2] = molecular target: Glucose-6-phosphate dehydrogenase ZwfA from Pseudomonas bharatica CSV86T (Pseudomonas bharatica CSV86T); test: SEC; ENrich SEC 650 column (CV 24 mL, Bio-Rad) in Buffer A (Tris-Cl 50 mM, pH 7.5), 4°C; native molecular weight from a semilog plot of Ve/V0 against standard proteins, compared with the subunit weight by SDS-PAGE
purified protein [3] = substrate: NC(=O)c1ccc[n+]([C@@H]2O[C@H](COP(=O)(O)OP(=O)(O)OC[C@H]3O[C@@H](n4cnc5c(N)ncnc54)[C@H](OP(=O)(O)O)[C@@H]3O)[C@@H](O)[C@H]2O)c1; test: purified protein; format: biochemical, Pseudomonas bharatica; conditions: 5 mM G6P fixed, Tris-Cl 50 mM, pH 8.25, hyperbolic
purified protein [4] = substrate: NC(=O)c1ccc[n+]([C@@H]2O[C@H](COP(=O)(O)OP(=O)(O)OC[C@H]3O[C@@H](n4cnc5c(N)ncnc54)[C@H](O)[C@@H]3O)[C@@H](O)[C@H]2O)c1; test: purified protein; format: biochemical, Pseudomonas bharatica; conditions: 5 mM G6P fixed, Tris-Cl 50 mM, pH 8.25, hyperbolic

“Glucose-6-phosphate dehydrogenase ZwfC from Pseudomonas bharatica CSV86T (enzyme)” gave a stoichiometry N [1] of 4.

Work on “Glucose-6-phosphate dehydrogenase ZwfA from Pseudomonas bharatica CSV86T (enzyme)” yielded a stoichiometry N [2] of 4.

B1: ZwfA (Pseudomonas bharatica CSV86) (protein)
chain: MSSISVEPCTFALFGALGDLALRKLFPALYQLDRAGLLHERTRLLALAREPGSVQEHLASIEAHLHEFVASDTLDTTVLQRFLGRLNYLHMDFLDAQAYPALAAQVTPEAPLIAYFATPAAVYGGICENLAKVGLAERTRVVLEKPIGHDLESSRRVNDAVAQFFPENRIYRIDHYLGKETVQNLIALRFANSLFETQWNQTSISHVEISVAEKVGIEGRWGYFDKAGQLRDMIQNHLLQLLCLIAMDPPSDLSADSIRDEKVKVLKALAPITGEGLGTRVVRGQYIAGHSDGRALPGYLDEENANTHSDTETFVALRADIRNWRWAGVPFYLRTGKRMPQKLSQIVIHFKEPQHYIFAAEQRLQIGNKLIIRLQPDEGISLRVMTKEQGLDKGMQLRSSPLQLNFSDGSFRSARIPDAYERLLLEVMRGNQNLFVRKDEIEYAWKWCDQLIAGWKQSGEAPRPYAAGTWGPVAAVALITRDGRSWYGDI
notes: full length, 490 aa (1473 nt), pET28a N-terminal 6xHis tag, E. coli BL21(DE3), Ni-NTA; subunit ~56 kDa, homotetramer ~217 kDa; part of zwfA-pgl-eda operon; Arg49, Leu17
With B1 the Km (purified protein [3]) was 110.5 ± 20 µM, the Vmax (purified protein [3]) was 201 ± 28 µmol/min/mg and the kcat (purified protein [3]) was 187 ± 26 s⁻¹. For the same molecule, the kcat/Km (purified protein [3]) was 1.7e+06 ± 300000 M⁻¹ s⁻¹, the Km (purified protein [4]) was 366 ± 70 µM and the Vmax (purified protein [4]) was 329 ± 74 µmol/min/mg. The kcat (purified protein [4]) was 306 ± 69 s⁻¹ and the kcat/Km (purified protein [4]) was 860000 ± 150000 M⁻¹ s⁻¹.
